The source of these data is publication PMC12815461 (2026).

B1: FLAG-tagged wild-type GMCL1 (germ cell-less protein-like 1) [human] / 53BP1 (p53-binding protein 1), endogenous in HEK293T [human (endogenous in HEK293T)] (parent complex)
chain 1: MGSLSSRVLRQPRPALAQQAQGARAGGSARRPDTGDDAAGHGFCYCAGSHKRKRSSGSFCYCHPDSETDEDEEEGDEQQRLLNTPRRKKLKSTSKYIYQTLFLNGENSDIKICALGEEWSLHKIYLCQSGYFSSMFSGSWKESSMNIIELEIPDQNIDVEALQVAFGSLYRDDVLIKPSRVVAILAAACLLQLDGLIQQCGETMKETVNVKTVCGYYTSAGTYGLDSVKKKCLEWLLNNLMTHQNVELFKELSINVMKQLIGSSNLFVMQVEMDIYTALKKWMFLQLVPSWNGSLKQLLTETDVWFSKQRKDFEGMAFLETEQGKPFVSVFRHLRLQYIISDLASARIIEQDAVVPSEWLSSVYKQQWFAMLRAEQDSEVGPQEINKEELEGNSMRCGRKLAKDGEYCWRWTGFNFGFDLLVTYTNRYIIFKRNTLNQPCSGSVSLQPRRSIAFRLRLASFDSSGKLICSRTTGYQILTLEKDQEQVVMNLDSRLLIFPLYICCNFLYISPEKKN
chain 2: MDPTGSQLDSDFSQQDTPCLIIEDSQPESQVLEDDSGSHFSMLSRHLPNLQTHKENPVLDVVSNPEQTAGEERGDGNSGFNEHLKENKVADPVDSSNLDTCGSISQVIEQLPQPNRTSSVLGMSVESAPAVEEEKGEELEQKEKEKEEDTSGNTTHSLGAEDTASSQLGFGVLELSQSQDVEENTVPYEVDKEQLQSVTTNSGYTRLSDVDANTAIKHEEQSNEDIPIAEQSSKDIPVTAQPSKDVHVVKEQNPPPARSEDMPFSPKASVAAMEAKEQLSAQELMESGLQIQKSPEPEVLSTQEDLFDQSNKTVSSDGCSTPSREEGGCSLASTPATTLHLLQLSGQRSLVQDSLSTNSSDLVAPSPDAFRSTPFIVPSSPTEQEGRQDKPMDTSVLSEEGGEPFQKKLQSGEPVELENPPLLPESTVSPQASTPISQSTPVFPPGSLPIPSQPQFSHDIFIPSPSLEEQSNDGKKDGDMHSSSLTVECSKTSEIEPKNSPEDLGLSLTGDSCKLMLSTSEYSQSPKMESLSSHRIDEDGENTQIEDTEPMSPVLNSKFVPAENDSILMNPAQDGEVQLSQNDDKTKGDDTDTRDDISILATGCKGREETVAEDVCIDLTCDSGSQAVPSPATRSEALSSVLDQEEAMEIKEHHPEEGSSGSEVEEIPETPCESQGEELKEENMESVPLHLSLTETQSQGLCLQKEMPKKECSEAMEVETSVISIDSPQKLAILDQELEHKEQEAWEEATSEDSSVVIVDVKEPSPRVDVSCEPLEGVEKCSDSQSWEDIAPEIEPCAENRLDTKEEKSVEYEGDLKSGTAETEPVEQDSSQPSLPLVRADDPLRLDQELQQPQTQEKTSNSLTEDSKMANAKQLSSDAEAQKLGKPSAHASQSFCESSSETPFHFTLPKEGDIIPPLTGATPPLIGHLKLEPKRHSTPIGISNYPESTIATSDVMSESMVETHDPILGSGKGDSGAAPDVDDKLCLRMKLVSPETEASEESLQFNLEKPATGERKNGSTAVAESVASPQKTMSVLSCICEARQENEARSEDPPTTPIRGNLLHFPSSQGEEEKEKLEGDHTIRQSQQPMKPISPVKDPVSPASQKMVIQGPSSPQGEAMVTDVLEDQKEGRSTNKENPSKALIERPSQNNIGIQTMECSLRVPETVSAATQTIKNVCEQGTSTVDQNFGKQDATVQTERGSGEKPVSAPGDDTESLHSQGEEEFDMPQPPHGHVLHRHMRTIREVRTLVTRVITDVYYVDGTEVERKVTEETEEPIVECQECETEVSPSQTGGSSGDLGDISSFSSKASSLHRTSSGTSLSAMHSSGSSGKGAGPLRGKTSGTEPADFALPSSRGGPGKLSPRKGVSQTGTPVCEEDGDAGLGIRQGGKAPVTPRGRGRRGRPPSRTTGTRETAVPGPLGIEDISPNLSPDDKSFSRVVPRVPDSTRRTDVGAGALRRSDSPEIPFQAAAGPSDGLDASSPGNSFVGLRVVAKWSSNGYFYSGKITRDVGAGKYKLLFDDGYECDVLGKDILLCDPIPLDTEVTALSEDEYFSAGVVKGHRKESGELYYSIEKEGQRKWYKRMAVILSLEQGNRLREQYGLGPYEAVTPLTKAADISLDNLVEGKRKRRSNVSSPATPTASSSSSTTPTRKITESPRASMGVLSGKRKLITSEEERSPAKRGRKSATVKPGAVGAGEFVSPCESGDNTGEPSALEEQRGPLPLNKTLFLGYAFLLTMATTSDKLASRSKLPDGPTGSSEEEEEFLEIPPFNKQYTESQLRAGAGYILEDFNEAQCNTAYQCLLIADQHCRTRKYFLCLASGIPCVSHVWVHDSCHANQLQNYRNYLLPAGYSLEEQRILDWQPRENPFQNLKVLLVSDQQQNFLELWSEILMTGGAASVKQHHSSAHNKDIALGVFDVVVTDPSCPASVLKCAEALQLPVVSQEWVIQCLIVGERIGFKQHPKYKHDYVSH

The assay covers variants of B1. The assay is described as follows: IP-MS (FLAG immunoprecipitation, MS/MS); HEK293T, 24 hr after transfection; read off a plot.
Consider chain 1 MGSLSSRVLRQPRPALAQQAQGARAGGSARRPDTGDDAAGHGFCYCAGSHKRKRSSGSFCYCHPDSETDEDEEEGDEQQRLLNTPRRKKLKSTSKYIYQTLFLNGENSDIKICALGEEWSLHKIYLCQSGYFSSMFSGSWKKSSMNIIELEIPDQNIDVEALQVAFGSLYRDDVLIKPSRVVAILAAACLLQLDGLIQQCGETMKETVNVKTVCGYYTSAGTYGLDSVKKKCLEWLLNNLMTHQNVELFKELSINVMKQLIGSSNLFVMQVEMDIYTALKKWMFLQLVPSWNGSLKQLLTETDVWFSKQRKDFEGMAFLETEQGKPFVSVFRHLRLQYIISDLASARIIEQDAVVPSEWLSSVYKQQWFAMLRAEQDSEVGPQEINKEELEGNSMRCGRKLAKDGEYCWRWTGFNFGFDLLVTYTNRYIIFKRNTLNQPCSGSVSLQPRRSIAFRLRLASFDSSGKLICSRTTGYQILTLEKDQEQVVMNLDSRLLIFPLYICCNFLYISPEKKN [chain 1 E142K], for which the screen value was around 180.
